Starred links: 1 amine or outer side, 2 acyl side, 3 side chain; linkers in the order of their positions; H or OH if unused. Positions of bridges follow the written chain, without caps; N, C: chain ends. Non-standard residues stand in square brackets, D forms with d. Primed or numbered codes have the meaning given here. PyrS2(3) = (S)-3-amino-1-((pent-4-en-1-yloxy)carbonyl)pyrrolidine-3-carboxylic acid, stapling residue, C=CCCCOC(=O)N1CC[C@@](N[*:1])(C(=O)[*:2])C1; PyrS2″ = (S)-3-amino-1-((pent-4-en-1-yloxy)carbonyl)pyrrolidine-3-carboxylic acid (stapling residue), C=CCCCOC(=O)N1CC[C@@](N[*:1])(C(=O)[*:2])C1; B5(16) = 2-amino-2-(pent-4-en-1-yl)hept-6-enoic acid = 2,2-bis(4-pentenyl)glycine (stitching residue), C=CCCCC(CCCC=C)(N[*:1])C(=O)[*:2]; B5(4) = 2,2-bis(4-pentenyl)glycine = 2-amino-2-(pent-4-en-1-yl)hept-6-enoic acid (stitching residue), C=CCCCC(CCCC=C)(N[*:1])C(=O)[*:2]; B5(5) = 2,2-bis(4-pentenyl)glycine, 2-amino-2-(pent-4-en-1-yl)hept-6-enoic acid (stitching residue), C=CCCCC(CCCC=C)(N[*:1])C(=O)[*:2]; TfeGA = (S)-2-amino-3-((carboxymethyl)(2,2,2-trifluoroethyl)amino)propanoic acid, O=C([C@H](CN(CC(=O)[*:3])CC(F)(F)F)N[*:1])[*:2]; B5(3) = 2,2-bis(4-pentenyl)glycine (stitching residue), C=CCCCC(CCCC=C)(N[*:1])C(=O)[*:2]; B5″ = 2,2-bis(4-pentenyl)glycine, stitching residue, C=CCCCC(CCCC=C)(N[*:1])C(=O)[*:2]; B5 = 2-amino-2-(pent-4-en-1-yl)hept-6-enoic acid, C=CCCCC(CCCC=C)(N[*:1])C(=O)[*:2]; Phe(2-Cl) = N[C@@H](Cc1ccccc1Cl)C(=O)O; Bta = N[C@@H](Cc1csc2ccccc12)C(=O)O; αAllylPro = C=CC[C@@]1(C(=O)O)CCCN1; tBuAla = CC(C)(C)C[C@H](N)C(=O)O; 3Thi = N[C@@H](Cc1ccsc1)C(=O)O; Cha = N[C@@H](CC1CCCCC1)C(=O)O; Cit = NC(=O)NCCC[C@H](N)C(=O)O; S8 = C=CCCCCCC[C@](C)(N)C(=O)O; Leu(ol) = CC(C)C[C@H](N)CO; hSer = N[C@@H](CCO)C(=O)O
B1: I-1214 (peptide)
peptide: Ac-[αAllylPro]D[tBuAla][B5(5)][hSer]DAAFN[PyrS2″][3Thi][Bta]Q-NH2
modifications: staple 1-4, 4-11
B2: I-1224 (peptide)
peptide: Ac-[αAllylPro]Q[tBuAla][B5(5)]DDAAFN[PyrS2″][3Thi][Bta]Q-NH2
modifications: staple 1-4, 4-11
B3: I-1221 (peptide)
peptide: Ac-[αAllylPro]N[tBuAla][B5(4)]DDAAFL[PyrS2″][3Thi][Bta]Q-NH2
modifications: staple 1-4, 4-11
B4: I-1212 (peptide)
peptide: Ac-[αAllylPro]D[tBuAla][B5(5)]LDAAFN[PyrS2″][3Thi][Bta]Q-NH2
modifications: staple 1-4, 4-11
B5: I-1207 (peptide)
peptide: Ac-[αAllylPro]D[tBuAla][B5″]NDAAFL[PyrS2(3)][3Thi][Bta]Q-NH2
modifications: staple 1-4, 4-11
B6: I-1206 (peptide)
peptide: Ac-[αAllylPro]D[tBuAla][B5″]NDAAFN[PyrS2(3)][3Thi][Bta]Q-NH2
modifications: staple 1-4, 4-11
B7: I-1215 (peptide)
peptide: Ac-[αAllylPro]D[tBuAla][B5(5)][hSer]DAAFL[PyrS2″][3Thi][Bta]Q-NH2
modifications: staple 1-4, 4-11
B8: I-1223 (peptide)
peptide: Ac-[αAllylPro]S[tBuAla][B5(5)]DDAAFL[PyrS2″][3Thi][Bta]Q-NH2
modifications: staple 1-4, 4-11
B9: I-1209 (peptide)
peptide: Ac-[αAllylPro]D[tBuAla][B5(5)]SDAAFL[PyrS2″][3Thi][Bta]Q-NH2
modifications: staple 1-4, 4-11
B10: I-1229 (peptide)
peptide: Ac-[αAllylPro][hSer][tBuAla][B5(5)]DDAAFL[PyrS2″][3Thi][Bta]Q-NH2
modifications: staple 1-4, 4-11
B11: I-1208 (peptide)
peptide: Ac-[αAllylPro]D[tBuAla][B5(5)]SDAAFN[PyrS2″][3Thi][Bta]Q-NH2
modifications: staple 1-4, 4-11
B12: I-1226 (peptide)
peptide: Ac-[αAllylPro]L[tBuAla][B5(5)]DDAAFN[PyrS2″][3Thi][Bta]Q-NH2
modifications: staple 1-4, 4-11
B13: I-1225 (peptide)
peptide: Ac-[αAllylPro]Q[tBuAla][B5(5)]DDAAFL[PyrS2″][3Thi][Bta]Q-NH2
modifications: staple 1-4, 4-11
B14: I-1210 (peptide)
peptide: Ac-[αAllylPro]D[tBuAla][B5(5)]QDAAFN[PyrS2″][3Thi][Bta]Q-NH2
modifications: staple 1-4, 4-11
B15: I-1222 (peptide)
peptide: Ac-[αAllylPro]S[tBuAla][B5(5)]DDAAFN[PyrS2″][3Thi][Bta]Q-NH2
modifications: staple 1-4, 4-11
B16: I-1228 (peptide)
peptide: Ac-[αAllylPro][hSer][tBuAla][B5(5)]DDAAFN[PyrS2″][3Thi][Bta]Q-NH2
modifications: staple 1-4, 4-11
B17: I-1211 (peptide)
peptide: Ac-[αAllylPro]D[tBuAla][B5(5)]QDAAFL[PyrS2″][3Thi][Bta]Q-NH2
modifications: staple 1-4, 4-11
B18: I-1243 (peptide)
peptide: Ac-[αAllylPro]D[tBuAla][B5(4)]D[TfeGA]AAFT[PyrS2″][Phe(2-Cl)][Bta][Leu(ol)]
modifications: staple 1-4, 4-11
B19: I-1089 (peptide)
peptide: Ac-[αAllylPro]D[tBuAla][B5(4)]DEAAFT[S8][Phe(2-Cl)][Bta]Q-NH2
modifications: staple 1-4, 4-11; also: later-eluting isomer composition
B20: I-1086 (peptide)
peptide: Ac-[αAllylPro]D[tBuAla][B5(4)]DDAAFT[S8][Phe(2-Cl)][Bta]Q-NH2
modifications: staple 1-4, 4-11; also: earlier-eluting HPLC peak staple isomer composition
B21: I-1091 (peptide)
peptide: Ac-[αAllylPro]D[tBuAla][B5(4)]DEAAFT[S8][Phe(2-Cl)][Bta]T-NH2
modifications: staple 1-4, 4-11
B22: I-1088 (peptide)
peptide: Ac-[αAllylPro]D[tBuAla][B5(4)]DEAAFT[S8][Phe(2-Cl)][Bta]Q-NH2
modifications: staple 1-4, 4-11; also: earlier-eluting isomer composition
B23: I-1090 (peptide)
peptide: Ac-[αAllylPro]D[tBuAla][B5(4)]DDAAFT[S8][Phe(2-Cl)][Bta]T-NH2
modifications: staple 1-4, 4-11
B24: I-1092 (peptide)
peptide: Ac-[αAllylPro]D[tBuAla][B5(4)]DDAAFT[S8][Phe(2-Cl)][Bta][dT]-NH2
modifications: staple 1-4, 4-11
B25: I-619 (peptide)
peptide: Ac-[αAllylPro]D[Cha][B5(4)]DEAAFN[S8]F[Bta]Q-NH2
modifications: staple 1-4, 4-11; also: earlier eluting HPLC peak (staple isomer)
B26: I-620 (peptide)
peptide: Ac-[αAllylPro]D[Cha][B5(16)]DEAAFN[S8]F[Bta]Q-NH2
modifications: staple 1-4, 4-11; also: later-eluting staple isomer composition
B27: I-621 (peptide)
peptide: Ac-[αAllylPro]DL[B5(4)]DEAAF[Cit][S8]F[Bta]Q-NH2
modifications: staple 1-4, 4-11
B28: I-616 (peptide)
peptide: Ac-[αAllylPro]DL[B5]DEAAF[Cit][S8]F[Bta]H-NH2
modifications: staple 1-4, 4-11
B29: I-615 (peptide)
peptide: Ac-[αAllylPro]D[Cha][B5]DEAAFN[S8]F[Bta]H-NH2
modifications: staple 1-4, 4-11

The binders below were run against full-length beta-Catenin (Uniprot ID P35222) (Homo sapiens (Human)) (UniProt P35222) (assay: FP competition: displacement of 5FAM-TCF4(10-53) from full-length beta-catenin).
Target sequence in this assay (P35222 whole entry): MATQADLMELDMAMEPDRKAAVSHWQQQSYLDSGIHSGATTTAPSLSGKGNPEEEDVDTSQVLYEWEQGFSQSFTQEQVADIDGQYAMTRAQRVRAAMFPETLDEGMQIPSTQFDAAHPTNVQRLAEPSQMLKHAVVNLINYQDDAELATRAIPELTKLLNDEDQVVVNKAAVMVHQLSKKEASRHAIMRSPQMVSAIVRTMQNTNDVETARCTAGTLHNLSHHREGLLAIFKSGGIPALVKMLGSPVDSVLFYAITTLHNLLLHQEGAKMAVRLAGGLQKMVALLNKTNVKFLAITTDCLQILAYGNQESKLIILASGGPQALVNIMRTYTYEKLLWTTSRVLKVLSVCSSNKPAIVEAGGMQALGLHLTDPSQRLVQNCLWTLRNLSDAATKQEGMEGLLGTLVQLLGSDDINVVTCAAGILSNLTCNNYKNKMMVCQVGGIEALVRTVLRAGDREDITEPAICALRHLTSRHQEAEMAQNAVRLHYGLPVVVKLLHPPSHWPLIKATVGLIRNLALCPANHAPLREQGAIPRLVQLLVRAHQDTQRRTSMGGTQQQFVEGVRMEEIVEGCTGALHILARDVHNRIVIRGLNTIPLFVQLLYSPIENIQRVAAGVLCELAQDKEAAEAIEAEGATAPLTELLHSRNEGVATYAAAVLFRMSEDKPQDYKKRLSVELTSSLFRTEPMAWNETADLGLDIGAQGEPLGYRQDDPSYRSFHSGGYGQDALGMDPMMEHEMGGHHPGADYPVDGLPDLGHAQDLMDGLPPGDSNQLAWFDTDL

EC50 [nM] | Binder
116 | B1
389 | B2
14 | B3
8660 | B4
40 | B5
32 | B6
216 | B7
550 | B8
479 | B9
134 | B10
349 | B11
559 | B12
305 | B13
56 | B14
511 | B15
100 | B16
115 | B17
82 | B18

These binders were tested against full-length beta-Catenin (Uniprot ID P35222) (Homo sapiens (Human)) (UniProt P35222) (assay: fluorescence polarization competition; full-length beta-catenin, 5FAM-TCF4(10-53) probe as competitor).
Target sequence in this assay (P35222 2-781 limits assumed): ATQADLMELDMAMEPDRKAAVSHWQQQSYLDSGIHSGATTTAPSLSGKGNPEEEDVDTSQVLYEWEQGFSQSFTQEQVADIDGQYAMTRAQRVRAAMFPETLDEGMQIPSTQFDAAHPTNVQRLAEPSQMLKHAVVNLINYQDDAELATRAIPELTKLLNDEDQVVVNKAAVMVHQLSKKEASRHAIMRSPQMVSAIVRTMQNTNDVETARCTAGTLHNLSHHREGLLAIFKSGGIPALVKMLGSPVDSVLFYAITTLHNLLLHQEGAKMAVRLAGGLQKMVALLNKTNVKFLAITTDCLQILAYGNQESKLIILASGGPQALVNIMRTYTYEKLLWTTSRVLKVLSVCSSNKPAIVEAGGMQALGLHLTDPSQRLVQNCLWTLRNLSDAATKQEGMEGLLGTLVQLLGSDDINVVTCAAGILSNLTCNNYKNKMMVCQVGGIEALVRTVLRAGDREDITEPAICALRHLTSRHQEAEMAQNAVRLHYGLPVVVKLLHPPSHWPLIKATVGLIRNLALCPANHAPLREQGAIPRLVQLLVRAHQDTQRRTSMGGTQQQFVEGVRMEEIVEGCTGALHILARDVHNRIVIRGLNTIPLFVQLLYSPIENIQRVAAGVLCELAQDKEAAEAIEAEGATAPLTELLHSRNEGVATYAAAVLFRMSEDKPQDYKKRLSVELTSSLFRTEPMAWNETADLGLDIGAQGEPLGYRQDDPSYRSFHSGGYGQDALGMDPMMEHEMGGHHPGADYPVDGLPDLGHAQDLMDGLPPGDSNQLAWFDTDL

IC50 [nM] | Binder
134 | B10
559 | B12
100 | B16
82 | B18

The binders below were run against full-length beta-Catenin (Uniprot ID P35222) (Homo sapiens (Human)) (UniProt P35222) (assay: fluorescence polarization competition; full-length beta-catenin + 5FAM-TCF4(10-53) probe as competitor).
Target sequence in this assay (P35222 2-781 limits assumed): as above

EC50 [nM] | Binder
12 | B19
12 | B20
27 | B21
22 | B22
18 | B23
26 | B24

Each binder was assayed against full-length beta-Catenin (Uniprot ID P35222) (Homo sapiens (Human)) (UniProt P35222) (assay: fluorescence polarization competition; full-length beta-catenin with 5FAM-TCF4(10-53) probe as competitor).
Target sequence in this assay (P35222 whole entry): as the sequence (P35222 whole entry) above

IC50 [nM] | Binder
44 | B25
35 | B26
58 | B27
108 | B28
50 | B29

Each binder was assayed against full-length beta-Catenin (Uniprot ID P35222) (Homo sapiens (Human)) (UniProt P35222) (assay: fluorescence polarization competition; peptide titrated against 10 nM full-length beta-catenin + 10 nM 5FAM-TCF4(10-53)).
Target sequence in this assay (P35222 2-781 limits assumed): as the sequence (P35222 2-781 limits assumed) above

IC50 [nM] | Binder
12 | B19
12 | B20
27 | B21
22 | B22
18 | B23
26 | B24

The binders below were run against full-length beta-Catenin (Uniprot ID P35222) (Homo sapiens (Human)) (UniProt P35222) (assay: fluorescence polarization competition; peptide titrated against 10 nM full-length beta-catenin + 10 nM 5FAM-TCF4(10-53) probe).
Target sequence in this assay (P35222 whole entry): as the sequence (P35222 whole entry) above

EC50 [nM] | Binder
44 | B25
35 | B26
58 | B27
108 | B28
50 | B29

Source: US20240116985A1, “STAPLED PEPTIDES AND METHODS THEREOF” (priority 2020, published 2024)
